These are literature values, as cited in patent US20190382462A1, “METHODS AND COMPOSITIONS FOR TREATING HPA HYPERACTIVITY” (priority 2017, published 2019).

Where two headings read alike, the source gives them in different places.

For data set [1] the following is noted: humans; cited from earlier work.
A further data set has as its target T1, Ucn1 (Homo sapiens, UniProt P55089).
T1 construct: the related peptide urocortin 1 (Ucn1)
T1 sequence (P55089 83-122 limits assumed): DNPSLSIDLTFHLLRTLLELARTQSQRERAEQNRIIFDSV
The conditions noted are these: cited from earlier work.

In a further data set the target is T2, CRF (Homo sapiens, UniProt P06850).
T2 construct: Biotinylated CRF was immobilized on an avidin-coated ELISA plate
T2 sequence (P06850 154-194 limits assumed): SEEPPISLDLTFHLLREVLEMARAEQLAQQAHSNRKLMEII
The conditions noted are these: cited from earlier work.

The target in the next data set is T3, rUcn 1 (Rattus norvegicus, UniProt P55090).
T3 sequence (P55090 81-120 limits assumed): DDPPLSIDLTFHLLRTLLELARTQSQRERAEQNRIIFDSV
The conditions noted are these: cited from earlier work; for loss of affinity for rUcn 1: alanine mutants of CRF-BP.

A further data set deals with T4, r/hCRF (Homo sapiens, UniProt P06850).
T4 sequence (P06850 154-194 limits assumed): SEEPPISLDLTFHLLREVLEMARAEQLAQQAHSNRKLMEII
The conditions noted are these: cited from earlier work; for loss of affinity for r/hCRF: alanine mutants of CRF-BP.

B1: CRF-BP: binding protein that specifically binds to CRF (protein, UniProt P24387 25-322, looked up)
Corticotropin-releasing …: YLELREAADYDPFLLFSANLKRELAGEQPYRRALRCLDMLSLQGQFTFTADRPQLHCAAFFISEPEEFITIHYDQVSIDCQGGDFLKVFDGWILKGEKFPSSQDHPLPSAERYIDFCESGLSRRSIRSSQNVAMIFFRVHEPGNGFTLTIKTDPNLFPCNVISQTPNGKFTLVVPHQHRNCSFSIIYPVVIKISDLTLGHVNGLQLKKSSAGCEGIGDFVELLGGTGLDPSKMTPLADLCYPFHGPAQMKVGCDNTVVRMVSSGKHVNRVTFEYRQLEPYELENPNGNSIGEFCLSGL
What is called Kd is the concentration at which binding is half-saturated. With B1, the plasma half-life result in data set [1] was “minutes”. Besides, the Kd was 100 pM with Ucn1; 100 to 200 pM with CRF (range printed without naming the ligand, read-out: KD (high affinity of CRF-BP)); 200 pM in the data set with CRF (read-out: KD for CRF).

B2: CRFBPC237A/C264A: CRF-BP derivative lacking the cysteines of the fourth disulfide bridge (C237/C264) (protein, UniProt P24387 25-322, looked up, variant C237A C264A)
Corticotropin-releasing …: YLELREAADYDPFLLFSANLKRELAGEQPYRRALRCLDMLSLQGQFTFTADRPQLHCAAFFISEPEEFITIHYDQVSIDCQGGDFLKVFDGWILKGEKFPSSQDHPLPSAERYIDFCESGLSRRSIRSSQNVAMIFFRVHEPGNGFTLTIKTDPNLFPCNVISQTPNGKFTLVVPHQHRNCSFSIIYPVVIKISDLTLGHVNGLQLKKSSAGAEGIGDFVELLGGTGLDPSKMTPLADLAYPFHGPAQMKVGCDNTVVRMVSSGKHVNRVTFEYRQLEPYELENPNGNSIGEFCLSGL
In the case of B2, the “affinity for rUcn 1 compared with WT CRF-BP” value with rUcn 1 is given as “indistinguishable from that of WT CRF-BP”. Further, the “affinity for r/hCRF compared with WT CRF-BP” value with r/hCRF is “indistinguishable from that of WT CRF-BP”.

B3: L61A: CRF-BP alanine mutant (protein, UniProt P24387 25-322, looked up, variant L61A)
Corticotropin-releasing …: YLELREAADYDPFLLFSANLKRELAGEQPYRRALRCADMLSLQGQFTFTADRPQLHCAAFFISEPEEFITIHYDQVSIDCQGGDFLKVFDGWILKGEKFPSSQDHPLPSAERYIDFCESGLSRRSIRSSQNVAMIFFRVHEPGNGFTLTIKTDPNLFPCNVISQTPNGKFTLVVPHQHRNCSFSIIYPVVIKISDLTLGHVNGLQLKKSSAGCEGIGDFVELLGGTGLDPSKMTPLADLCYPFHGPAQMKVGCDNTVVRMVSSGKHVNRVTFEYRQLEPYELENPNGNSIGEFCLSGL
Turning to B3, the “loss of affinity for rUcn 1” value with rUcn 1 was “partial”. Further, the “loss of affinity for r/hCRF” value with r/hCRF was “partial”.

B4: F123A: CRF-BP alanine mutant (protein, UniProt P24387 25-322, looked up, variant F123A)
Corticotropin-releasing …: YLELREAADYDPFLLFSANLKRELAGEQPYRRALRCLDMLSLQGQFTFTADRPQLHCAAFFISEPEEFITIHYDQVSIDCQGGDFLKVFDGWILKGEKAPSSQDHPLPSAERYIDFCESGLSRRSIRSSQNVAMIFFRVHEPGNGFTLTIKTDPNLFPCNVISQTPNGKFTLVVPHQHRNCSFSIIYPVVIKISDLTLGHVNGLQLKKSSAGCEGIGDFVELLGGTGLDPSKMTPLADLCYPFHGPAQMKVGCDNTVVRMVSSGKHVNRVTFEYRQLEPYELENPNGNSIGEFCLSGL
In the case of B4, in the data set with rUcn 1, the “loss of affinity for rUcn 1” value is “partial”. Moreover, in the data set with r/hCRF, the “loss of affinity for r/hCRF” value is “partial”.

B5: Q188A: CRF-BP alanine mutant (protein, UniProt P24387 25-322, looked up, variant Q188A)
Corticotropin-releasing …: YLELREAADYDPFLLFSANLKRELAGEQPYRRALRCLDMLSLQGQFTFTADRPQLHCAAFFISEPEEFITIHYDQVSIDCQGGDFLKVFDGWILKGEKFPSSQDHPLPSAERYIDFCESGLSRRSIRSSQNVAMIFFRVHEPGNGFTLTIKTDPNLFPCNVISATPNGKFTLVVPHQHRNCSFSIIYPVVIKISDLTLGHVNGLQLKKSSAGCEGIGDFVELLGGTGLDPSKMTPLADLCYPFHGPAQMKVGCDNTVVRMVSSGKHVNRVTFEYRQLEPYELENPNGNSIGEFCLSGL
Regarding B5, the “loss of affinity for rUcn 1” value with rUcn 1 was “partial”. Further, the “loss of affinity for r/hCRF” value with r/hCRF is reported as “partial”.

B6: W116A: CRF-BP alanine mutant (protein, UniProt P24387 25-322, looked up, variant W116A)
Corticotropin-releasing …: YLELREAADYDPFLLFSANLKRELAGEQPYRRALRCLDMLSLQGQFTFTADRPQLHCAAFFISEPEEFITIHYDQVSIDCQGGDFLKVFDGAILKGEKFPSSQDHPLPSAERYIDFCESGLSRRSIRSSQNVAMIFFRVHEPGNGFTLTIKTDPNLFPCNVISQTPNGKFTLVVPHQHRNCSFSIIYPVVIKISDLTLGHVNGLQLKKSSAGCEGIGDFVELLGGTGLDPSKMTPLADLCYPFHGPAQMKVGCDNTVVRMVSSGKHVNRVTFEYRQLEPYELENPNGNSIGEFCLSGL
As to B6, the “loss of affinity for rUcn 1” value in the data set with rUcn 1 is given as “complete”. Further, the “loss of affinity for r/hCRF” value with r/hCRF is recorded as “complete”.

B7: Y211A: CRF-BP alanine mutant (protein, UniProt P24387 25-322, looked up, variant Y211A)
Corticotropin-releasing …: YLELREAADYDPFLLFSANLKRELAGEQPYRRALRCLDMLSLQGQFTFTADRPQLHCAAFFISEPEEFITIHYDQVSIDCQGGDFLKVFDGWILKGEKFPSSQDHPLPSAERYIDFCESGLSRRSIRSSQNVAMIFFRVHEPGNGFTLTIKTDPNLFPCNVISQTPNGKFTLVVPHQHRNCSFSIIAPVVIKISDLTLGHVNGLQLKKSSAGCEGIGDFVELLGGTGLDPSKMTPLADLCYPFHGPAQMKVGCDNTVVRMVSSGKHVNRVTFEYRQLEPYELENPNGNSIGEFCLSGL
Take B7: in the data set with rUcn 1, the “loss of affinity for rUcn 1” value was “complete”. Also, the “loss of affinity for r/hCRF” value with r/hCRF is “complete”.

B8: E121A: CRF-BP alanine mutant (protein, UniProt P24387 25-322, looked up, variant E121A)
Corticotropin-releasing …: YLELREAADYDPFLLFSANLKRELAGEQPYRRALRCLDMLSLQGQFTFTADRPQLHCAAFFISEPEEFITIHYDQVSIDCQGGDFLKVFDGWILKGAKFPSSQDHPLPSAERYIDFCESGLSRRSIRSSQNVAMIFFRVHEPGNGFTLTIKTDPNLFPCNVISQTPNGKFTLVVPHQHRNCSFSIIYPVVIKISDLTLGHVNGLQLKKSSAGCEGIGDFVELLGGTGLDPSKMTPLADLCYPFHGPAQMKVGCDNTVVRMVSSGKHVNRVTFEYRQLEPYELENPNGNSIGEFCLSGL
For the molecule B8, the “loss of affinity for rUcn 1” value in the data set with rUcn 1 is on record as “partial”. Moreover, the “loss of affinity for r/hCRF” value with r/hCRF is “partial”.

B9: CRF-BPC277A/C318A: CRF-BP derivative lacking the cysteines of the fifth disulfide bridge (C277/C318) (protein, UniProt P24387 25-322, looked up, variant C277A C318A)
Corticotropin-releasing …: YLELREAADYDPFLLFSANLKRELAGEQPYRRALRCLDMLSLQGQFTFTADRPQLHCAAFFISEPEEFITIHYDQVSIDCQGGDFLKVFDGWILKGEKFPSSQDHPLPSAERYIDFCESGLSRRSIRSSQNVAMIFFRVHEPGNGFTLTIKTDPNLFPCNVISQTPNGKFTLVVPHQHRNCSFSIIYPVVIKISDLTLGHVNGLQLKKSSAGCEGIGDFVELLGGTGLDPSKMTPLADLCYPFHGPAQMKVGADNTVVRMVSSGKHVNRVTFEYRQLEPYELENPNGNSIGEFALSGL
For the molecule B9, the “affinity for rUcn 1 compared with WT CRF-BP” value in the data set with rUcn 1 was “indistinguishable from that of WT CRF-BP”. In addition, the “affinity for r/hCRF compared with WT CRF-BP” value with r/hCRF was “indistinguishable from that of WT CRF-BP”.
